Data reported in PMC12585908, “Proteolytic cleavage activates the mitochondrial isoform of TOP3A”.

Target: T1, TOP3A 917 (truncated) (Homo sapiens, UniProt Q13472 16-917)
T1 sequence: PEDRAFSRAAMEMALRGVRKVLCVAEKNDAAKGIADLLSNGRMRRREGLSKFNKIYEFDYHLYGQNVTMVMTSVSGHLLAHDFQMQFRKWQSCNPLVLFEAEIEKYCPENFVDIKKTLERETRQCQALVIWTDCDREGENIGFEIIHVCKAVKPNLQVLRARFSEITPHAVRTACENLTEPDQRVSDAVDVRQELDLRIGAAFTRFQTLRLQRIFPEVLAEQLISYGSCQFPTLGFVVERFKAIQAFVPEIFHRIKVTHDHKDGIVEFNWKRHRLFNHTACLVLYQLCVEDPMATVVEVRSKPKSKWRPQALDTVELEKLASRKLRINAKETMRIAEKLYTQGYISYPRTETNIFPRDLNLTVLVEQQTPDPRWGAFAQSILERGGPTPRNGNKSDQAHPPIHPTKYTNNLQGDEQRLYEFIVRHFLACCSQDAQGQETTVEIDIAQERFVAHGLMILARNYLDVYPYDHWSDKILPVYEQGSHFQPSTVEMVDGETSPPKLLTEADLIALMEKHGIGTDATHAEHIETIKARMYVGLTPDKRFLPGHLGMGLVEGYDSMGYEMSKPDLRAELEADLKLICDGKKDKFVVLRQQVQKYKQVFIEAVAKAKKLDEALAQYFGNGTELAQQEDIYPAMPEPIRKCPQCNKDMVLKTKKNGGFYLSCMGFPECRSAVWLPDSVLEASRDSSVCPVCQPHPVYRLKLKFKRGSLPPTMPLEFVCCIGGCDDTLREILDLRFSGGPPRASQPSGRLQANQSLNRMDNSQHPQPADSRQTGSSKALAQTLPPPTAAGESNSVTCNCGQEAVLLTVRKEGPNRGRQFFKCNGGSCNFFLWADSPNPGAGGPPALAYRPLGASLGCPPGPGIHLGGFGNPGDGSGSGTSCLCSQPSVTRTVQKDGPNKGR
Assay: EMSA; no Mg2+ added; higher binding than full-length; 25 mM HEPES pH 7.5, 70 mM NaCl, 100 ug/ml BSA, 1 mM DTT, 10% glycerol, 10 fmol DNA in 20 ul, 37 C 15 min; 8% PAGE in 0.5x TBE at 4 C
Conditions: protein: recombinant; tags: 6xHis removed with TEV (cloning section: N-terminal TEV-cleavable 6xHis; purification section says C-terminal 6xHis); label: 5' 32P; single strand

TGTTATTATTATGTCCTACAAGCATTAATTAATTAACACA (ssDNA) [EMSA substrate (40 nt ssDNA)]: binds.
